In patent publication USRE41461E1, “Purification, composition and specificity of Heparinase I, II, and III from Flavobacterium heparinum” (Massachusetts Institute of Technology, priority 1992, dated 2010):
Entries after “also recorded” stand apart in the source; their conditions may differ. Like-named read-outs stand apart in the source and are kept apart here.

How the values were obtained:
[1] = Heparin lyase activity assay (change of absorbance at 232 nm), heparin as substrate; type: biochemical, porcine
Method: The spectrophotometer was adjusted to the optimum temperature of the particular lyase being assayed. […] A measured quantity of lyase was added, bringing the final volume to 400 μl and the cuvette was gently mixed. The microcuvette was then immediately returned to the spectrophotometer and the change of absorbance at 232 nm was measured at 10 seconds intervals over 3 min. […] The specific activity was then calculated by dividing the micromoles of product produced per minute by the milligrams of protein in the cuvette. […] G., and Linhardt, R. J. (1989) Carbohydr. Res. 190, 219-233. Protein concentration was measured by the Bradford assay, Bradford, M. M. (1976) Anal. Biochem. 72, 248-254, based on a bovine serum albumin standard curve. […] The activities of each lyase (I acting on heparin, II acting on both heparin and heparan sulfate, and III acting on heparan sulfate) were then determined at different pH values. The buffer giving optimum activity for each heparin lyase was selected by testing buffers with buffering capacity near the pH optima calculated in the previous experiments. These buffers were: Tris-HCl, sodium phosphate, HEPES, MOPS, TES, and BTP-CHl. […] The heparin lyase assay solutions were made by diluting enzyme in 50 mM sodium phosphate buffer adjusted to the appropriate pH as previously described. Heparin lyase activity was determined in each buffer. Activity was assayed both immediately after addition to each buffer and following incubation for 24 h at 37° C. The salt concentration for optimum activity was investigated. Sodium chloride, potassium chloride, and sodium and potassium acetate were used to differentiate between ionic strength and specific ion affects. […] The temperature was adjusted in a temperature-regulated spectrophotometer and equilibrated for 10 min before the assay was started. Michaelis-Menten constants were determined using the optimized conditions. The final absorbance value for total depolymerization was divided by 20 to find a value that represented 5% reaction completion. The purified lyase preparations were diluted so that 5% of total depolymerization would be reached only at the end of a 3-min assay. The reaction velocities at specific molar concentrations for each lyase and their substrates were used for kinetic analysis using EZ-FIT hyperbolic curve-fitting program of […]. (1988) Anal. Biochem. 174, 437-447). Substrate solutions were prepared from 50 mg/ml heparin and 40 mg/ml for heparan sulfate stock solutions. […] The amount of purified lyase used was sufficient for complete depolymerization of heparin or heparan sulfate substrates within 30 min. The initial rate of depolymerization of each polysaccharide was measured, the reaction was then continued for 24 h, and the final level of polysaccharide depolymerization was assessed by measuring the final absorbance at 232 nm and expressed as percent activity.

[2] = Heparin lyase activity: effect of divalent metals and added salt, substrate specificity (each lyase on its substrates); type: biochemical; conditions: for effect of calcium on activity (increase): 10 mM calcium chloride, 50 mM BTP-HCl; for effect of added salt on activity: increasing salt concentration, 0-500 mM
Method: The spectrophotometer was adjusted to the optimum temperature of the particular lyase being assayed. A 700 μl quartz microcuvette containing 400 μg of substrate in 50 mM sodium phosphate buffer (containing 100 mM sodium chloride for heparin lyase I) was thermally equilibrated. A measured quantity of lyase was added, bringing the final volume to 400 μl and the cuvette was gently mixed. The microcuvette was then immediately returned to the spectrophotometer and the change of absorbance at 232 nm was measured at 10 seconds intervals over 3 min. The activity was measured from the change of absorbance/unit time using an extinction coefficient of 3800 M^−1 for products. The specific activity was then calculated by dividing the micromoles of product produced per minute by the milligrams of protein in the cuvette. The molecular weights used for heparin, heparan sulfate, and the chondroitin sulfates were 14,000, 20,000 and 25,000, respectively, Rice, K. G., and Linhardt, R. J. (1989) Carbohydr. Res. 190, 219-233. Protein concentration was measured by the Bradford assay, Bradford, M. M. (1976) Anal. Biochem. 72, 248-254, based on a bovine serum albumin standard curve.
BTP-HCl buffer (50 mM) was prepared containing either 10 mM calcium chloride, 10 μM or 1 mM copper (II) chloride, 10 μM and 1 mM mercury (II) chloride, and 1 mM zinc (II) chloride. Each solution was adjusted to the optimum pH for the lyase being tested, and the activity of the heparin lyases was measured in the presence and absence of divalent metals.
The salt concentration for optimum activity was investigated. Sodium chloride, potassium chloride, and sodium and potassium acetate were used to differentiate between ionic strength and specific ion affects. Added salt concentrations varied between 0 and 500 mM and were prepared in 50 mM sodium phosphate buffer after which the pH was adjusted to each enzyme's optimum and the heparin lyase activity was measured.
Each heparin lyase was added to a solution of complex polysaccharides (1 mg/ml) under optimized assay conditions, and the reaction was monitored at 232 nm for 30 min. The amount of purified lyase used was sufficient for complete depolymerization of heparin or heparan sulfate substrates within 30 min. The initial rate of depolymerization of each polysaccharide was measured, the reaction was then continued for 24 h, and the final level of polysaccharide depolymerization was assessed by measuring the final absorbance at 232 nm and expressed as percent activity.

[3] = Rice and Lindhardt (1989), cited from earlier work

B1: Heparin lyase II: heparin lyase II (heparinase II, no EC number) purified to homogeneity from Flavobacterium heparinum (protein, UniProt C6XZB6 26-772, looked up)
Heparin and heparin-sulfate …: QTKADVVWKDVDGVSMPIPPKTHPRLYLREQQVPDLKNRMNDPKLKKVWADMIKMQEDWKPADIPEVKDFRFYFNQKGLTVRVELMALNYLMTKDPKVGREAITSIIDTLETATFKPAGDISRGIGLFMVTGAIVYDWCYDQLKPEEKTRFVKAFVRLAKMLECGYPPVKDKSIVGHASEWMIMRDLLSVGIAIYDEFPEMYNLAAGRFFKEHLVARNWFYPSHNYHQGMSYLNVRFTNDLFALWILDRMGAGNVFNPGQQFILYDAIYKRRPDGQILAGGDVDYSRKKPKYYTMPALLAGSYYKDEYLNYEFLKDPNVEPHCKLFEFLWRDTQLGSRKPDDLPLSRYSGSPFGWMIARTGWGPESVIAEMKVNEYSFLNHQHQDAGAFQIYYKGPLAIDAGSYTGSSGGYNSPHNKNFFKRTIAHNSLLIYDPKETFSSSGYGGSDHTDFAANDGGQRLPGKGWIAPRDLKEMLAGDFRTGKILAQGFGPDNQTPDYTYLKGDITAAYSAKVKEVKRSFLFLNLKDAKVPAAMIVFDKVVASNPDFKKFWLLHSIEQPEIKGNQITIKRTKNGDSGMLVNTALLPDAANSNITSIGGKGKDFWVFGTNYTNDPKPGTDEALERGEWRVEITPKKAAAEDYYLNVIQIADNTQQKLHEVKRIDGDKVVGVQLADRIVTFSKTSETVDRPFGFSVVGKGTFKFVMTDLLPGTWQVLKDGKILYPALSAKGDDGALYFEGTEGTYRFLR
Unit/mg (specific activity) ([1]; final GPC-HPLC purification step, acting on heparin): 19 Unit/mg | average number of sites acted at in the heparin polymer ([1]; final level of depolymerization, 24 h): 14 sites | initial activity in six buffers (Tris-HCl, sodium phosphate, HEPES, MOPS, TES, BTP-HCl) ([1]; heparin, 50 mM buffer at optimum pH): remarkably similar in all six buffers | temperature for maximum activity ([1]; heparin, 50 mM sodium phosphate at optimum pH, 15-55° C.): 40 °C | Km ([1]; heparin, I: 30° C., pH 7.15, 100 mM sodium chloride, II: 35° C., pH 7.3, value ± standard error, read-out: Km(app)): 57.7 ± 6.56 µM | optimum temperature (summary) ([1]; heparin, activity greater at higher temperatures but stability reduced): 35 °C | Vmax ([1]; heparin, optimized conditions, value ± standard error): 16.7 ± 0.555 μmol/min mg protein | pH optimum for activity ([1]; on heparin): 7.3 | specific activity ([1]; purified lyase, toward heparin): 19 units/mg | Km (Michelis-Menton constant, summary) ([1]; with heparin): 0,129 mg/ml | V(max) (summary) ([1]; with heparin): 15.04 | Km ([1]; with heparin, read-out: Km (Michelis-Menton constant, summary)): 9.23 µM | substrates acted on [2]: act on both heparin and heparan sulfate | effect of calcium on activity (increase) [2]: dramatically reduced | effect of divalent metal ions on activity (all metals tested) ([2]; acting on both heparin and heparan sulfate): inhibition by all of the metals tested except for 10 μM copper | effect of added salt on activity [2]: decrease in activity; also recorded: decreases | effect of added salt on activity ([2]; listed as heparinase II): not observed

B2: Heparin lyase III: heparin lyase III (heparitinase EC 4.2.2.8) purified to homogeneity from Flavobacterium heparinum (protein, UniProt Q59289 25-659, looked up)
Heparin-sulfate lyase: QSSSITRKDFDHINLEYSGLEKVNKAVAAGNYDDAAKALLAYYREKSKAREPDFSNAEKPADIRQPIDKVTREMADKALVHQFQPHKGYGYFDYGKDINWQMWPVKDNEVRWQLHRVKWWQAMALVYHATGDEKYAREWVYQYSDWARKNPLGLSQDNDKFVWRPLEVSDRVQSLPPTFSLFVNSPAFTPAFLMEFLNSYHQQADYLSTHYAEQGNHRLFEAQRNLFAGVSFPEFKDSPRWRQTGISVLNTEIKKQVYADGMQFELSPIYHVAAIDIFLKAYGSAKRVNLEKEFPQSYVQTVENMIMALISISLPDYNTPMFGDSWITDKNFRMAQFASWARVFPANQAIKYFATDGKQGKAPNFLSKALSNAGFYTFRSGWDKNATVMVLKASPPGEFHAQPDNGTFELFIKGRNFTPDAGVFVYSGDEAIMKLRNWYRQTRIHSTLTLDNQNMVITKARQNKWETGNNLDVLTYTNPSYPNLDHQRSVLFINKKYFLVIDRAIGEATGNLGVHWQLKEDSNPVFDKTKNRVYTTYRDGNNLMIQSLNADRTSLNEEEGKVSYVYNKELKRPAFVFEKPKKNAGTQNFVSIVYPYDGQKAPEISIRENKGNDFEKGKLNLTLTINGKQQLVLVP
substrates acted on [2]: acts only on heparan sulfate | effect of copper on activity ([2]; 10 μM copper (II) chloride): unaffected | effect of mercury on activity ([2]; 10 μM mercury (II) chloride): unaffected | effect of copper on activity ([2]; 1 mM copper (II) chloride): inhibited | effect of mercury on activity ([2]; 1 mM mercury (II) chloride): inhibited | effect of zinc on activity ([2]; 1 mM zinc (II) chloride): inhibited | effect of calcium on activity (increase) [2]: 20% | effect of added salt on activity [2]: decrease in activity; also recorded: decreases | effect of added salt on activity ([2]; listed as heparinase III): not observed | Vmax (reported) [3]: 0.00357 µmol/min | Km ([3]; read-out: apparent Km (reported)): 5.7 µM
